Columns and labels:
[1] = biological target: human HER2 expressed on target cells (BT-474, SKOV3, MCF-7, human cardiomyocytes) (human) (UniProt P04626); assay: cell-based or functional assay
[2] = biological target: cynomolgus monkey CD3 (cynomolgus monkey); assay: surface plasmon resonance, equilibrium binding analysis
[3] = biological target: cynomolgus monkey HER2 (cynomolgus monkey); assay: as above
human CD3 (human) = assay: as above
human HER2 (human) = human HER2 (human) (UniProt P04626); assay: as above

| Jurkat NFAT-Luciferase reporter T cell activation in the presence of BT-474 cells, EC50 [1] | Kd [2] | Kd [3] | Kd (human CD3 (human)) | fold reduction of affinity by masking, against AMX-818(PAT) [2] | fold reduction of affinity by masking, against AMX-818(PAT) [3] | fold reduction of affinity by masking, against AMX-818(PAT) (human CD3 (human)) | Kd (human HER2 (human)) | Substance | T cell-mediated cytotoxicity against BT474 cells (PBMC 1:1, 48 h, CellTiter-Glo), EC50 [1] | T cell-mediated cytotoxicity against SKOV3 cells (PBMC 1:1, 48 h, CellTiter-Glo), EC50 [1] | cytotoxicity against BT-474 tumor cells with PBMC effectors (1:1), IC50 [1] |
| --- | --- | --- | --- | --- | --- | --- | --- | --- | --- | --- | --- |
| 0.07 nM | 21.5 nM | 2 nM | 26.3 nM | – | – | – | – | AMX-818(PAT) (bispecific antibody) | 0.0048 nM | 0.0034 nM | 0.005 to 0.011 nM |
| – | 140 nM | 20.1 nM | 160 nM | 6 fold | 10 fold | 6 fold | 24.9 nM | AMX-818 (bispecific antibody) | 49.4 nM | 44.5 nM | – |
